Non-standard residues stand in square brackets, D forms with d.
Key:
[1] = biological target: T1, integrin α5β1 ectodomain (soluble) (human, UniProt P08648 42-995; P05556 21-728); assay: fluorescence polarisation; competition with 10 nM FITC-cyclic-… binding to soluble integrin ectodomains in solution (50 nM α5β1, 200 nM αVβ1, 20 nM αVβ3, 20 nM αVβ5); global three-parameter dose-response fit; settings: both partners purified
T1 construct: human integrin α5 ectodomain; N-terminal secretion peptide and HRV3C digestion site in the construct; human integrin β1 ectodomain; source: Expi293F, transiently transfected, purified from culture supernatant (Ni-NTA, size-exclusion chromatography)

[2] = biological target: T2, integrin α5β1, intact, on wild type K562 cells (human (endogenous in K562), UniProt P08648 42-1049; P05556 21-798); assay: flow cytometry on cells; intact integrins on K562 cells in L15 medium with 1% BSA and 1 mM Mn2+, no washing; titrator's binding read as enhancement of binding of AF647-9EG7 Fab (10 nM); EC50 of a three-parameter dose-response fit taken as Kd; settings: one partner purified
T2 construct: integrin α5 subunit, natively expressed on K562 cells; integrin β1 subunit, natively expressed on K562 cells; also called K562 WT (α5β1); K562 WT; source: endogenous, on wild type K562 cells

[3] = biological target: T2, integrin α5β1, intact, on wild type …; assay: flow cytometry on cells; intact integrins on K562 cells in L15 medium with 1% BSA, without Mn2+, no washing; titrator's binding read as enhancement of binding of fluorescent 9EG7 Fab (10 nM); EC50 of a three-parameter dose-response fit taken as Kd; settings: one partner purified
[4] = biological target: T3, integrin α5β1 ectodomain (soluble) (human, UniProt P08648;P05556); assay: fluorescence polarisation; competition with 10 nM FITC-cyclic-… binding to soluble integrin ectodomains in solution (50 nM α5β1, 200 nM αVβ1, 20 nM αVβ3, 20 nM αVβ5); global three-parameter dose-response fit; settings: both partners purified
T3 construct: human integrin α5 ectodomain; N-terminal secretion peptide and HRV3C digestion site in the construct; human integrin β1 ectodomain; source: Expi293F, transiently transfected, purified from culture supernatant (Ni-NTA, size-exclusion chromatography)

[5] = biological target: T4, integrin αVβ3 ectodomain (soluble) (human, UniProt P06756;P05106); assay: as above; settings: both partners purified
T4 construct: human integrin αV ectodomain; N-terminal secretion peptide and HRV3C digestion site in the construct; human integrin β3 ectodomain; source: Expi293F, transiently transfected, purified from culture supernatant (Ni-NTA, size-exclusion chromatography)

[6] = biological target: T5, integrin α5β1, intact, on wild type K562 cells (human (endogenous in K562), UniProt P08648;P05556); assay: flow cytometry on cells; intact integrins on K562 cells in L15 medium with 1% BSA and 1 mM Mn2+, no washing; titrator's binding read as enhancement of binding of AF647-9EG7 Fab (10 nM); EC50 of a three-parameter dose-response fit taken as Kd; settings: one partner purified
T5 construct: integrin α5 subunit, natively expressed on K562 cells; integrin β1 subunit, natively expressed on K562 cells; also called K562 WT (α5β1); K562 WT; source: endogenous, on wild type K562 cells

[7] = biological target: T6, integrin αVβ1, intact, on K562 αVβ1 stable transfectants (human, UniProt P06756;P05556); assay: as above; settings: one partner purified
T6 construct: integrin αV subunit; integrin β1 subunit; the cells also express native α5β1, whose share the legend calls negligible

[8] = biological target: T5, integrin α5β1, intact, on wild type …; assay: flow cytometry on cells; intact integrins on K562 cells in L15 medium with 1% BSA, without Mn2+, no washing; titrator's binding read as enhancement of binding of fluorescent 9EG7 Fab (10 nM); EC50 of a three-parameter dose-response fit taken as Kd; settings: one partner purified
[9] = biological target: T6, integrin αVβ1, intact, on K562 αVβ1 …; assay: as above; settings: one partner purified

T6 sequence (P06756 31-1048, chain 1 of 2): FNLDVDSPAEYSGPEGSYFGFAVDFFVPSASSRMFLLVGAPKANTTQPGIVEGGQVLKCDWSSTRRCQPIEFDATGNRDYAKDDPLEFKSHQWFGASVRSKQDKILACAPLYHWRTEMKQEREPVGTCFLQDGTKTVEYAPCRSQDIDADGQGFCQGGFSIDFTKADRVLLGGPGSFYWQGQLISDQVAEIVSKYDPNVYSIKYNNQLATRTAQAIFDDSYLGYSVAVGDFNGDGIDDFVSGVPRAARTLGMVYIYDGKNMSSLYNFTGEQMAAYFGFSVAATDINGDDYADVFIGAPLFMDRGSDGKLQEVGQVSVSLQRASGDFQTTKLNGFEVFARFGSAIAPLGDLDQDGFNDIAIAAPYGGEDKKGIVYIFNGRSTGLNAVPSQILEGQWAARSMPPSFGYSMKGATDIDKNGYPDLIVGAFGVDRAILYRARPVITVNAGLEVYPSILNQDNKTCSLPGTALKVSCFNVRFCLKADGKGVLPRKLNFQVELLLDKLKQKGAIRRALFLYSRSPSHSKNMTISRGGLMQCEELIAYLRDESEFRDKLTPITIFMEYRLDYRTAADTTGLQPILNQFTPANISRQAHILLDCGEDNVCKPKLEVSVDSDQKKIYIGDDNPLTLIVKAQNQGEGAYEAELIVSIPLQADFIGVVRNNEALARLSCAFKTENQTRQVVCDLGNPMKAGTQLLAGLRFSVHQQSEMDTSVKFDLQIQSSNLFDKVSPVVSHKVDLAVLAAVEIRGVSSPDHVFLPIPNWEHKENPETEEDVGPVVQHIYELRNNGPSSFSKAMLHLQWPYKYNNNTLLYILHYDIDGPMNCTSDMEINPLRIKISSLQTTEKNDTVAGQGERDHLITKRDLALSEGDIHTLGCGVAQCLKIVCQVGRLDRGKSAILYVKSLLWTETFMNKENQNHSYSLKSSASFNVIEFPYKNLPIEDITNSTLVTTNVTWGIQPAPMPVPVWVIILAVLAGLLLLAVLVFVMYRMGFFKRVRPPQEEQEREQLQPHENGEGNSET
T6 sequence (P05556 21-798, chain 2 of 2): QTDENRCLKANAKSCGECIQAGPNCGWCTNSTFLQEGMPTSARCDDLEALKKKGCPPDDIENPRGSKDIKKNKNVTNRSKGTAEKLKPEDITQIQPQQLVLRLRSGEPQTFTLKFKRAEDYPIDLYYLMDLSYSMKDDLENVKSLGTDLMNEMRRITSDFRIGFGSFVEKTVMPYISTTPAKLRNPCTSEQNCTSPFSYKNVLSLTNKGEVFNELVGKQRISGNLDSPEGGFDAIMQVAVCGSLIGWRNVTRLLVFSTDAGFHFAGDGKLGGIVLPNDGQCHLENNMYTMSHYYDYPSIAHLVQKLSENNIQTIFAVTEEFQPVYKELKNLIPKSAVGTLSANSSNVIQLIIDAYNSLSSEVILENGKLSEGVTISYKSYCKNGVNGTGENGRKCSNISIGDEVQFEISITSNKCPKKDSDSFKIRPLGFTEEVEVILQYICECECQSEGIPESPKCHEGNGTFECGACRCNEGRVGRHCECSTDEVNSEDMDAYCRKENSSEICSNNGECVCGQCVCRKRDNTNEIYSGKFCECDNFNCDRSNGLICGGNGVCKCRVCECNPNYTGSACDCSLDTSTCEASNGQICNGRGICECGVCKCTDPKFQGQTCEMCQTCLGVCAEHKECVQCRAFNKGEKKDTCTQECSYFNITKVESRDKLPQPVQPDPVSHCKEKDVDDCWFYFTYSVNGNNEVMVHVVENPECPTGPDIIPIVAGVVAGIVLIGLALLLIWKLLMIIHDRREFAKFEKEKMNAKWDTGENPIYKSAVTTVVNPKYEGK
T2 sequence (P08648 42-1049, chain 1 of 2): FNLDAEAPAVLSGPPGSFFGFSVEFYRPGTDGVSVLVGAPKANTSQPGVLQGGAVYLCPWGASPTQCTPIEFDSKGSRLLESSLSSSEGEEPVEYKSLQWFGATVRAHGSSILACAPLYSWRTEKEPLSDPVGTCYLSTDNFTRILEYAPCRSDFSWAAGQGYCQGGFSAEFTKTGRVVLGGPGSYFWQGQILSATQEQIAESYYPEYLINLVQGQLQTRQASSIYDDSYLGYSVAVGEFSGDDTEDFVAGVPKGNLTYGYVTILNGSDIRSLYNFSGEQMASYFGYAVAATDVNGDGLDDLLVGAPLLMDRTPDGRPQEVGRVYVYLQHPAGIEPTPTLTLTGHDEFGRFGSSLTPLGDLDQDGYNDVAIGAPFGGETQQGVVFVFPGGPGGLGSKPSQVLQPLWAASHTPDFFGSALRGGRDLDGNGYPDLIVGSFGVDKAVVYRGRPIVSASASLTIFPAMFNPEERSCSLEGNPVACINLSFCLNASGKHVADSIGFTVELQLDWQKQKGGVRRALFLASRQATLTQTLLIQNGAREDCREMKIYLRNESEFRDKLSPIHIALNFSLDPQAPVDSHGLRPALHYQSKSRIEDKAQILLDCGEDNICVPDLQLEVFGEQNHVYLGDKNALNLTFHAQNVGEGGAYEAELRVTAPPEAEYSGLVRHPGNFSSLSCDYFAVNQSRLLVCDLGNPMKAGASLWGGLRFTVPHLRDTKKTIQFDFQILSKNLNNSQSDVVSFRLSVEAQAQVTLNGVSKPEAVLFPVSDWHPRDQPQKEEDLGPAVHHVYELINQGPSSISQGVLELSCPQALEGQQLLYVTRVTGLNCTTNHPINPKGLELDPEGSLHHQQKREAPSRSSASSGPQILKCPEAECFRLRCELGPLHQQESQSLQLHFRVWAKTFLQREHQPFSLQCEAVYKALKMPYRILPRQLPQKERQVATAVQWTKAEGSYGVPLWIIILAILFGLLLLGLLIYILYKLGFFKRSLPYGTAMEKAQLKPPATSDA
T2 sequence (P05556 21-798, chain 2 of 2): as the sequence (P05556 21-798, chain 2 of 2) above
T5 sequence (P08648 42-1049, chain 1 of 2): as the sequence (P08648 42-1049, chain 1 of 2) above
T5 sequence (P05556 21-798, chain 2 of 2): as the sequence (P05556 21-798, chain 2 of 2) above
T4 sequence (P06756 31-992, chain 1 of 2): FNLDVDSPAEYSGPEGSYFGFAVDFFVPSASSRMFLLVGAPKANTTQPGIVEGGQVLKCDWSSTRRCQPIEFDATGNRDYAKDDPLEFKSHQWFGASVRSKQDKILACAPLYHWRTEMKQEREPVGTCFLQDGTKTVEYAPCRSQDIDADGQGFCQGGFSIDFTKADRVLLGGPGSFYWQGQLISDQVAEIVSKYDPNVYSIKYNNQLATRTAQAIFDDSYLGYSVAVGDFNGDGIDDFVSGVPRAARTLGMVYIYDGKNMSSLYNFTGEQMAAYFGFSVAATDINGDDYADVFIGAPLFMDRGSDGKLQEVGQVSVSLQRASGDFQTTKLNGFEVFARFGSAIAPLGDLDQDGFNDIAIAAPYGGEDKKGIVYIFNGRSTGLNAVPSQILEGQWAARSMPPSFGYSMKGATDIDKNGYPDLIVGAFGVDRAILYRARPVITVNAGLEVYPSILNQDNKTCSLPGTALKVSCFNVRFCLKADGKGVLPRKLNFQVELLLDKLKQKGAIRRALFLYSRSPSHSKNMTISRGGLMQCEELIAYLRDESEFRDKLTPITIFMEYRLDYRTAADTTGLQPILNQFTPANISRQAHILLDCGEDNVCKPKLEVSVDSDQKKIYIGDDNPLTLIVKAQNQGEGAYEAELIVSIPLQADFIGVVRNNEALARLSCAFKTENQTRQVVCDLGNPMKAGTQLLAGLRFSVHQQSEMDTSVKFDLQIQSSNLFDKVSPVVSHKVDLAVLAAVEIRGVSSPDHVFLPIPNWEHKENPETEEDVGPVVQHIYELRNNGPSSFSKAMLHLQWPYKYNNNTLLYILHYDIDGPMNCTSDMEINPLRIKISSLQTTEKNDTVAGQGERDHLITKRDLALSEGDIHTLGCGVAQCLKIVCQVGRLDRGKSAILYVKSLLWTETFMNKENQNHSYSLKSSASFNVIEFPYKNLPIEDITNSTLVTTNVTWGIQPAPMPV
T4 sequence (P05106 27-718, chain 2 of 2): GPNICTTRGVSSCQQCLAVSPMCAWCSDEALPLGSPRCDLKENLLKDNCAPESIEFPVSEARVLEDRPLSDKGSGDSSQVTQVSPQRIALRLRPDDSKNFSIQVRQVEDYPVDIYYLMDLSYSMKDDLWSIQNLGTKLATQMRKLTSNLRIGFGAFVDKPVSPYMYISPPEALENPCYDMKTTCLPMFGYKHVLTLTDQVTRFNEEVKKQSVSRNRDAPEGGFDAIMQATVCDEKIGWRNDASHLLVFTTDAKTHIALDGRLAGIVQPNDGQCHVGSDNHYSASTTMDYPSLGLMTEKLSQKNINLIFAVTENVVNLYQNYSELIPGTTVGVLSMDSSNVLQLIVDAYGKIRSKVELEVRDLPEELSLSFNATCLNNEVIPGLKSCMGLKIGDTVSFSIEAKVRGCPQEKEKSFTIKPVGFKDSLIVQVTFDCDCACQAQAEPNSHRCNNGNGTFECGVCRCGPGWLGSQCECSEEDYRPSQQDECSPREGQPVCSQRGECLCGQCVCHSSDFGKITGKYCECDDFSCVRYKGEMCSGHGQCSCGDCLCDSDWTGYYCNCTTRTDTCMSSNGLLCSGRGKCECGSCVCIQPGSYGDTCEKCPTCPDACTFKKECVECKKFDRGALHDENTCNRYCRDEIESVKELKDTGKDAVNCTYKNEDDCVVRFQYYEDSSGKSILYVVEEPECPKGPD

B1: cRGDfK peptide, cyclo[Arg-Gly-Asp-D-Phe-Lys] (peptide)
peptide: cyclo(RGD[dF]K)
notes: cyclic pentapeptide, a cilengitide analog; f = D-Phe; Unlabelled soluble peptide used as titrator
Work on B1 yielded an IC50 [1] of 1.2 ± 0.5 µM, a Kd [2] of 11 µM and a Kd [3] of 610 µM.

B2: Biogen-αVβ1.5 Fab (Fab, V domains shown)
VH: EVQLVESGGGVVQPGRSLRLSCAASGFTFKYYGMHWVRQAPGKGLEWVASIWYDGSNKKYADSVKGRFTISRDNSKNTLYLQMNSLRAEDTAVYYCARGGPTRGDGTRVYYYGMDVWGQGTTVTVSS
VL: EIVMTQSPATLSVSPGERATLSCRASQSVSSNLAWYQQKPGQAPRLLIYSASTRATGIPARFSGSGSGTEFTLTISSLQSEDFAVYYCQQYYHHPFTFGGGTKVEIK
notes: heavy chain before CDR3; heavy-chain CDR3 (RGD motif highlighted); heavy chain after CDR3 up to the papain cut (IgG1); light chain; Expressed as IgG1 and cut to Fab with papain; also called Exemplary Antibody 5; anti-αVβ1; source: Expi293F, recombinantly expressed as IgG1; Fab generated with papain, purified (Hi-Trap Q)
For B2, the IC50 [4] was 0.2 ± 0.1 µM, the IC50 [5] was 21 ± 3 µM and the Kd [6] was 4.3 µM. The Kd [7] was 0.0236 µM, the Kd [8] was 19 µM and the Kd [9] was 0.117 µM.
